Assays:
[1] = substrate: CN1CC=C(C2CCCN2C)CC1; experiment: Km value for Monoamine oxidase B was determined in baboon liver tissue.; design: species or system Papio hamadryas
[2] = substrate: CN1CC=C(C2CCCN2C)CC1; experiment: Km value for Monoamine oxidase A was determined in human placental tissue

B1: Amine oxidase [flavin-containing] B (Homo sapiens) (protein)
chain: MSNKCDVVVVGGGISGMAAAKLLHDSGLNVVVLEARDRVGGRTYTLRNQKVKYVDLGGSYVGPTQNRILRLAKELGLETYKVNEVERLIHHVKGKSYPFRGPFPPVWNPITYLDHNNFWRTMDDMGREIPSDAPWKAPLAEEWDNMTMKELLDKLCWTESAKQLATLFVNLCVTAETHEVSALWFLWYVKQCGGTTRIISTTNGGQERKFVGGSGQVSERIMDLLGDRVKLERPVIYIDQTRENVLVETLNHEMYEAKYVISAIPPTLGMKIHFNPPLPMMRNQMITRVPLGSVIKCIVYYKEPFWRKKDYCGTMIIDGEEAPVAYTLDDTKPEGNYAAIMGFILAHKARKLARLTKEERLKKLCELYAKVLGSLEALEPVHYEEKNWCEEQYSGGCYTTYFPPGILTQYGRVLRQPVDRIYFAGTETATHWSGYMEGAVEAGERAAREILHAMGKIPEDEIWQSEPESVDVPAQPITTTFLERHLPSVPGLLRLIGLTTIFSATALGFLAHKRGLLVRV
B1 was tested, and the Km [1] was 60.9 µM.

B2: Amine oxidase [flavin-containing] A (Homo sapiens) (protein)
chain: MENQEKASIAGHMFDVVVIGGGISGLSAAKLLTEYGVSVLVLEARDRVGGRTYTIRNEHVDYVDVGGAYVGPTQNRILRLSKELGIETYKVNVSERLVQYVKGKTYPFRGAFPPVWNPIAYLDYNNLWRTIDNMGKEIPTDAPWEAQHADKWDKMTMKELIDKICWTKTARRFAYLFVNINVTSEPHEVSALWFLWYVKQCGGTTRIFSVTNGGQERKFVGGSGQVSERIMDLLGDQVKLNHPVTHVDQSSDNIIIETLNHEHYECKYVINAIPPTLTAKIHFRPELPAERNQLIQRLPMGAVIKCMMYYKEAFWKKKDYCGCMIIEDEDAPISITLDDTKPDGSLPAIMGFILARKADRLAKLHKEIRKKKICELYAKVLGSQEALHPVHYEEKNWCEEQYSGGCYTAYFPPGIMTQYGRVIRQPVGRIFFAGTETATKWSGYMEGAVEAGERAAREVLNGLGKVTEKDIWVQEPESKDVPAVEITHTFWERNLPSVSGLLKIIGFSTSVTALGFVLYKYKLLPRS
B2 gave a Km [2] of 52 µM.

From ChEMBL document CHEMBL1136363, “Rational approaches towards reversible inhibition of type B monoamine oxidase. Design and evaluation of a novel 5H-Indeno[1,2-c]pyridazin-5-one derivative” (Bioorg Med Chem Lett, 2003)
